This test has as its target T1, human melanoma chondroitin sulfate proteoglycan (MCSP) (human, UniProt Q6UVK1 30-2322).
T1 construct: whole, on cells; also called HMW-MAA; high molecular weight-melanoma-associated antigen
Nature of the test: flow cytometry on A375 human melanoma cells; reference antibody of the comparison. As to the method: The purified, monomeric humanized antibody variants were tested for binding to the human HMW-MAA/MCSP antigen on the A375 human melanoma cell line, using a flow cytometry-based assay. 200,000 cells (in 180 μl FACS buffer (PBS containing 2% FCS and 5 mM EDTA) were transferred to 5 ml polystyrene tubes and 20 μl 10 fold concentrated anti-MCSP antibody (primary antibody) samples (1-5000 ng/ml final concentration) or PBS only were added. After gently mixing the samples, the tubes were incubated at 4° C. for 30 min in the dark. Subsequently, samples were washed twice with FACS buffer and pelleted at 300 g for 3 min. Supernatant was aspirated off and cells were taken up in 50 μl FACS buffer and 2 μl secondary antibody (anti-Fc-specific F(ab′)2-FITC fragments (Jackson Immuno Research Laboratories, USA)) was added and the tubes were incubated at 4° C. for 30 min. Samples were washed twice with FACS buffer and taken up in 500 μl of FACS buffer for analysis by Flow Cytometry. Binding was determined by plotting the geometric mean fluorescence against the antibody concentrations.
(In general: A flow cytometer gives signals particle by particle.)

The results in this text go back to US20060223096A1 (GLYCART BIOTECHNOLOGY, published 2006).

T1 sequence (Q6UVK1 30-2322): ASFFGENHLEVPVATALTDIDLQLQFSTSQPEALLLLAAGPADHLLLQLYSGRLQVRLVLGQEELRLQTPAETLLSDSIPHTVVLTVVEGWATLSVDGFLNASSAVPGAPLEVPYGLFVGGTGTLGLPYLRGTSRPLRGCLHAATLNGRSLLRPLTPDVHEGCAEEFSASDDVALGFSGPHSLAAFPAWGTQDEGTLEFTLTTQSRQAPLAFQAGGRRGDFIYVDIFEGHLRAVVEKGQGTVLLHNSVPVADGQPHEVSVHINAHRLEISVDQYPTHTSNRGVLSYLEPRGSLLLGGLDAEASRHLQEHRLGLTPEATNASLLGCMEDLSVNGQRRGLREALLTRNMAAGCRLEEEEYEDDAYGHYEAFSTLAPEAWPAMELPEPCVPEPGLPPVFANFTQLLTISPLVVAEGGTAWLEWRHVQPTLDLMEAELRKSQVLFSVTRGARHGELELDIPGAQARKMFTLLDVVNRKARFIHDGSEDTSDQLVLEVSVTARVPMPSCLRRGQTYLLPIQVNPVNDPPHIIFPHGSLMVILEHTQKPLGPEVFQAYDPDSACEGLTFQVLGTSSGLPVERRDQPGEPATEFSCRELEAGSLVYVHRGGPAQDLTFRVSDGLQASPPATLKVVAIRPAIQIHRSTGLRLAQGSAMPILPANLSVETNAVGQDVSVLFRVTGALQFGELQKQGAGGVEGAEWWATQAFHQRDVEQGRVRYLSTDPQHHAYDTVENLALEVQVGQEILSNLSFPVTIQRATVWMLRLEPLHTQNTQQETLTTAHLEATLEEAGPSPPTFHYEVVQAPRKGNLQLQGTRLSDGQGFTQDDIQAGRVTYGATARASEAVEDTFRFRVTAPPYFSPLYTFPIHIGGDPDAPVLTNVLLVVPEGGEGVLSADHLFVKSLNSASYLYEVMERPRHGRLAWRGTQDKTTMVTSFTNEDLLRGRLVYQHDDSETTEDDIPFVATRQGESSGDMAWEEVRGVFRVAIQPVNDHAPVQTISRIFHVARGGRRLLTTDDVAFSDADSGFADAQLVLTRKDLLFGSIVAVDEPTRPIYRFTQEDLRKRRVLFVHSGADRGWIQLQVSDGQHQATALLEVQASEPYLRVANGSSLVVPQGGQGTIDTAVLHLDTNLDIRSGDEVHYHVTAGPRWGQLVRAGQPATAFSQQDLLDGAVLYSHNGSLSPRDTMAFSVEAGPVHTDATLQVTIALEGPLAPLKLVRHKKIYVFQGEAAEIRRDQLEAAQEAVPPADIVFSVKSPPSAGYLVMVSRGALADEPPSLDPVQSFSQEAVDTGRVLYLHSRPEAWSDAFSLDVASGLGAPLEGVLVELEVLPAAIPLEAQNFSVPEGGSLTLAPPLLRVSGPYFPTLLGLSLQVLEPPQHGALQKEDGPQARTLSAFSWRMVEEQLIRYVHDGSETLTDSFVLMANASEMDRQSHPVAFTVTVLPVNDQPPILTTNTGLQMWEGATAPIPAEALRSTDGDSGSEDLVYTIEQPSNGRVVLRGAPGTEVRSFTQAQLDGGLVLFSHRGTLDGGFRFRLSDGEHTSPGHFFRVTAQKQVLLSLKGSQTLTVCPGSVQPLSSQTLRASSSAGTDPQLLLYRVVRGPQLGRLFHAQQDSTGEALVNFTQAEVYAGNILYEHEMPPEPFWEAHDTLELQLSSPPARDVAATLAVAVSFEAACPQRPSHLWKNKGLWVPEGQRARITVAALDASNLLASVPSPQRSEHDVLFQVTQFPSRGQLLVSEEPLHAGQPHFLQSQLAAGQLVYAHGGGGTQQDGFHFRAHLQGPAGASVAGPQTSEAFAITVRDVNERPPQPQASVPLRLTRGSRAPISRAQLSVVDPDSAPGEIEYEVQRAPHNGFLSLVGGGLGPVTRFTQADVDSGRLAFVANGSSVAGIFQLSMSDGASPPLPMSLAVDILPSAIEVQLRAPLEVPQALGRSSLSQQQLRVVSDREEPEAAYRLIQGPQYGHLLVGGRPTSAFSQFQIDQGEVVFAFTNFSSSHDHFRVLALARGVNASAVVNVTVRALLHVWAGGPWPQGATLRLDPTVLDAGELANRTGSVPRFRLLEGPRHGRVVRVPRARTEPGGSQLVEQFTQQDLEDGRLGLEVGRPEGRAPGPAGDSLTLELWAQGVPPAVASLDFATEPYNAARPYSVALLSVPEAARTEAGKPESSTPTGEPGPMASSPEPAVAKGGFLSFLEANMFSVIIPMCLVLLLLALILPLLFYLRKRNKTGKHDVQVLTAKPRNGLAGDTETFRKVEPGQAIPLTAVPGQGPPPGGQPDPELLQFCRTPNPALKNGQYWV

B1: ch-225.28S antibody (murine 225.28S VH and VL with human constant regions) (antibody, V domains shown)
VH: QVKLQQSGGGLVQPGGSMKLSCVVSGFTFSNYWMNWVRQSPEKGLEWIAEIRLKSNNFGRYYAESVKGRFTISRDDSKSSAYLQMINLRAEDTGIYYCTSYGNYVGHYFDHWGQGTTVTVSS
VL: DIELTQSPKFMSTSVGDRVSVTCKASQNVDTNVAWYQQKPGQSPEPLLFSASYRYTGVPDRFTGSGSGTDFTLTISNVQSEDLAEYFCQQYNSYPLTFGGGTKLEIK
notes: also called mVH/mVL
Consider B1, for which the binding result is “binds”.
